From patent publication WO2016092096A1 (dated 2016) come the findings set out here.

Experiment [1] has as its target T1, OXA-48 carbapenemase (Klebsiella pneumoniae, UniProt Q6XEC0 23-265). Put plainly: sandwich on ArrayTube array as in Example 2; cell supernatant denatured 10 min at 99°C.
Experiment [2] has as its target T1, OXA-48 carbapenemase. Briefly: sandwich on ArrayTube array, 1461 capture and biotin-labelled 1281 detector, cultivated cells of clinical strains.
In experiment [3] the target is T2, VIM carbapenemase (Pseudomonas aeruginosa (strain ATCC …, UniProt A0A0F7KYQ8 21-266)).
T2 construct: The antigen in the assays came from VIM-positive strains or from supernatants of expressing cells
Put plainly: sandwich on ArrayTube array as in Example 2; cell supernatant denatured 10 min at 99°C.

The target of experiment [4] is T3, NDM carbapenemase (Klebsiella pneumoniae, UniProt C7C422 29-270).
T3 construct: The antigen in the assays came from NDM-positive strains or from supernatants of expressing cells
Described as above.

T1 sequence (Q6XEC0 23-265 limits assumed): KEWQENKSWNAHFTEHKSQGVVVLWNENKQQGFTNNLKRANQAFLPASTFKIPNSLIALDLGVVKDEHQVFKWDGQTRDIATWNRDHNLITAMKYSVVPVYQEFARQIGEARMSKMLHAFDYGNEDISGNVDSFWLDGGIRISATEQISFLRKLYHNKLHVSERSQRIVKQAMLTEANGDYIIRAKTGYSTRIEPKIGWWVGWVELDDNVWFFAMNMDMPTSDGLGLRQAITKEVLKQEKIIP
T3 sequence (C7C422 29-270 limits assumed): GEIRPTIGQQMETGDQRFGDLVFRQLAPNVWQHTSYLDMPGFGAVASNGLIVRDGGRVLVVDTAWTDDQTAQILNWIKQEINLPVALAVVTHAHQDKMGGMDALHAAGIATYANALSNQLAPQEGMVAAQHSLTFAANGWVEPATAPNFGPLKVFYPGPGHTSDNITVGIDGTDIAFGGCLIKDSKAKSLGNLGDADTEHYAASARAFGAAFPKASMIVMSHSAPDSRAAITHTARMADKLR

B1: anti-OXA-48 antibody 1281 (antibody, V domains shown)
VH: DVQLQQSGPEMVKPGASVKISCKAFGYTFSDYYMYWVKQSHGKSLEWIGRVNGNNGDTRYNQKFEGKATLTVDKSSSTAYMELNSLTSEDSAVYYCARGDYLAYWGQGTTLTVSS
VL: NIVLTQSPASLAVSLGQRASISCRAIKSVDSYGTSFMHWYQQKPGQPPKLLIYRASNLESGIPARFSGSGSRTDFTLTINPVEADDVATYYCHQSNEAPYTFGGGTKLEIKR
notes: It was selected from a phage display Fab library
Consider B1, for which the binding result in experiment [1] is listed as “binds”.

B2: anti-OXA-48 antibody 1461 (antibody, V domains shown)
VH: QVQLKQSGAELGRPGSSVKLSCKTSGYKFKSYGINWVKQRPGQGLEWIGYIYPGSGYIEYNEKFQGEATLTSDTSSSTAYMQLRSLTSEDSAIYFCGRLGDGYFFYAMDYWGQGTSVTVSS
VL: QIVLTQSPTTMAASPGEKITITCSASSSISSNYMHWYQQKPGFSPKLLIYRTSNLGSGVPVRFSGSGSGTSYSLTIGTMEAEDVATYYCQQGSSIPFTFGSGTKLEIKR
notes: Used as capture antibody spotted on the array
With B2, in experiment [2], the binding result is given as “binds”.

B3: anti-VIM antibody 1071 (antibody, V domains shown)
VH: QVKLQQSGPELARPGASVKLSCKASGYTFRSYGITWVKQRTGQGLEWIGEIYPESNISYYNEKFKGTATLTTDKSSSTAYMQLSSLTSEDSAVYFCARRDYDGSYIYWGQGTTLTVSS
VL: QIVLTQSPTTMAASPGENITITCSASSSISSNFLHGYQQKPGFSPKLLIYRTSNLASGVPTRFSGSGSGTSYSLTIGTMEAEDVATYYCQQGDSLPRTFGGGTKLEIKR
notes: It was selected from a phage display Fab library; Used as capture antibody
In the case of B3, in experiment [3], the binding result was “binds”.

B4: anti-NDM antibody 1041 (antibody, V domains shown)
VH: QVQLKQSGAELARPGASVKLSCKASGYTFRGYGISWVKQRTGQGLEWIGEIYPGSGNTHYNEKFKGKATLTADKSSSTAYMQLSSLTTEDSAVYFCADLGSWFANWGQGTLVTVSA
VL: DIVLTQSPATLSVTPGDSVSLSCRASQSIYNNLHWYQQKSHESPRLLIKYASQSISGIPSRFSGSGSGTDFTLSINSVETEDFGMYFCQQSNSWPYTFGAGTKLELKR
notes: as for B3
Take B4: the binding result in experiment [4] is “binds”.

B5: antibody 1721 (SEQ ID Nos: 19 and 23), detector antibody for VIM (antibody, V domains shown)
VH: QVQLQQPGSVLVRPGTSVKLSCKASGYTFTSYWMHWVKQRPGQGLEWIGEIYPNSGKTNYNEKFKGKATLTVDTSSSTAYVALNSLTSEDSAVYYCAKRYSLYDFTLDYWGQGTSVTVSS
VL: DIKMTQSPKSMSMSVGERVTLTCKASENVGTFVSWYQQKLDQSPKLLIYGASKRYTGVPDRFTGSGSATDFTLAISSVQAEDLADYHCGQSFSYPLTFGAGTKLELKR
notes: The detector is labelled with biotin
For the molecule B5, the binding result in experiment [3] is given as “binds”.

B6: anti-NDM antibody 1121 (antibody, V domains shown)
VH: QVQLQQSEADLVRPGSSVKISCKASGYAFSNSWINWVKQRPGQGLEWIGQINPGDGNTKYNGKFKGKVILTADKSSSTAYMQLSSLTSEDSAVYFCERETPLWSFVYWGRGTLVTVSA
VL: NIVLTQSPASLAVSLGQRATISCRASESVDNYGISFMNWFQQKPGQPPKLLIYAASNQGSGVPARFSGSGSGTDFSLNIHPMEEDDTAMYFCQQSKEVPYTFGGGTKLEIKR
notes: Used as detector antibody, labelled with biotin
In the case of B6, the binding result in experiment [4] is “binds”.
